Starred links: 1 amine or outer side, 2 acyl side, 3 side chain; linkers in the order of their positions; H or OH if unused. Non-standard residues stand in square brackets, D forms with d. Groups on a side chain read outwards from the residue. No end group written: not given here. *: point of attachment. C20 diacid = O=C(O)CCCCCCCCCCCCCCCCCCC(=O)*; αMePhe(2-F) = C[C@](N)(Cc1ccccc1F)C(=O)O; γGlu = O=C(O)[C@H](CCC(=O)[*:2])N[*:1]; 4Pal = N[C@@H](Cc1ccncc1)C(=O)O; αMeL = CC(C)C[C@](C)(N)C(=O)O; Orn = NCCC[C@H](N)C(=O)O; AEEA = NCCOCCOCC(=O)O; Aib = CC(C)(N)C(=O)O
Tests used:
[1] = molecular target: T1, human glucose-dependent insulinotropic polypeptide (GIP) receptor (human, UniProt P48546 22-466); test: SPA, displacement of [125I]-GIP from hGIPR membranes, 0.1% bacitracin
T1 construct: whole, on cells; Assayed as crude membranes of stably transfected CHO cells; also called hGIPR; human GIP receptor
T1 sequence (looked up): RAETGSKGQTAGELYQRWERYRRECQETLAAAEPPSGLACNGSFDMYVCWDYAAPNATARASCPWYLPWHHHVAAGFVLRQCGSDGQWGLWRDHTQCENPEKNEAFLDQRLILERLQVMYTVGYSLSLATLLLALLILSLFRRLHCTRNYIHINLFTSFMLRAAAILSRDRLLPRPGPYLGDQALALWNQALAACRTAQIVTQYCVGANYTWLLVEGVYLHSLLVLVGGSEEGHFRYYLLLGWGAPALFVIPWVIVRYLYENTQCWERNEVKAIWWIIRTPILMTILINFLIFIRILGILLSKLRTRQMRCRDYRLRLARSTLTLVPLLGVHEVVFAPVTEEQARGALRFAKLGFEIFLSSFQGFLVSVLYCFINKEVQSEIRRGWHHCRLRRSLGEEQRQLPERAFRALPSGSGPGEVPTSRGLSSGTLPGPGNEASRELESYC

human glucagon receptor = molecular target: T2, human glucagon receptor (human, UniProt P47871 26-477); test: SPA, displacement of [125I]-Gcg from hGcgR membranes, 0.1% bacitracin
T2 construct: whole, on cells; Assayed as crude membranes of stably transfected HEK293 cells; also called hGcgR; GcgR
T2 sequence (P47871 26-477): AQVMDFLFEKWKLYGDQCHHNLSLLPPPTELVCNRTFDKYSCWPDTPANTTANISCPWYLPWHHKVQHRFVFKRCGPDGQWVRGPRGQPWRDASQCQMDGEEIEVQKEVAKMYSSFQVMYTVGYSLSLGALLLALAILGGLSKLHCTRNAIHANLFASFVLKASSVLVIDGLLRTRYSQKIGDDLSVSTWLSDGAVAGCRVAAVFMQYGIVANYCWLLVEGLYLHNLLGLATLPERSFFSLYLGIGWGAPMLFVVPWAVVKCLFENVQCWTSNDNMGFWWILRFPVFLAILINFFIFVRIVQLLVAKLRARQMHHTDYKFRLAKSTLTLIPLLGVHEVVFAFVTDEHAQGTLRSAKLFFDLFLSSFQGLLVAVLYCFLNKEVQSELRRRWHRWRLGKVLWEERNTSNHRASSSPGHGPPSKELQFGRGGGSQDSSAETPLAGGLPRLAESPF
Experimental: The binding buffer contains 25 mM 4-(2-hydroxyethyl)-1-piperazineethanesulfonic acid (HEPES), pH 7.4, 2.5 mM CaCl₂), 1 mM MgCl₂, 0.1% (w/v) bacitracin (Research Products), 0.003% (w/v) Polyoxyethylenesorbitan monolaurate (TWEEN®-20), and Roche Complete™ Protease Inhibitors without EDTA. […] Plates are sealed and mixed on a plate shaker (setting 6) for 1 minute and read with a PerkinElmer Trilux MicroBeta® scintillation counter after 12 hours of incubation/settling time at room temperature.
Data are analyzed using four-parameter (curve maximum, curve minimum, […], Hill slope) nonlinear regression routines (Genedata Screener, version 12.0.4, Genedata AG, Basal, Switzerland). […] Values for Kᵢ are reported as the geometric mean, with error expressed as the standard error of the mean (SEM) and n is equal to the number of independent replicates (determined in assays performed on different days).

human GLP-1 receptor = molecular target: T3, human GLP-1 receptor (human, UniProt P43220 24-463); test: SPA, displacement of [125I]-GLP-1 from hGLP-1R membranes, 0.1% bacitracin
T3 construct: whole, on cells; Assayed as crude membranes of stably transfected HEK293 cells; also called hGLP1R; hGLP-1R
In short: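 Binding buffer: 25 mM HEPES pH 7.4, 2.5 mM CaCl₂, 1 mM MgCl₂, 0.1% bacitracin, 0.003% Tween-20, protease inhibitors without EDTA. Four-parameter nonlinear regression; Kᵢ given as geometric mean ± SEM, n = independent replicates run on different days.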

Binder | Ki [1] [nM] | Ki (human glucagon receptor) [nM] | Ki (human GLP-1 receptor) [nM]
Y[Aib]EGT[αMePhe(2-F)]ISDYSILLDKIHQ[Aib]DFVE[4Pal]K([AEEA-AEEA-γGlu-C20 diacid])LEQGPSSGAPPPS-NH2 (N-terminus assumed; SMILES CC[C@H](C)[C@H](NC(=O)[C@H](CO)NC(=O)[C@H](Cc1ccc(O)cc1)NC(=O)[C@H](CC(=O)O)NC(=O)[C@H](CO)NC(=O)[C@@H](NC(=O)[C@](C)(Cc1ccccc1F)NC(=O)[C@@H](NC(=O)CNC(=O)[C@H](CCC(=O)O)NC(=O)C(C)(C)NC(=O)[C@@H](N)Cc1ccc(O)cc1)[C@@H](C)O)[C@@H](C)CC)C(=O)N[C@@H](CC(C)C)C(=O)N[C@@H](CC(C)C)C(=O)N[C@@H](CC(=O)O)C(=O)N[C@@H](CCCCN)C(=O)N[C@H](C(=O)N[C@@H](Cc1c[nH]cn1)C(=O)N[C@@H](CCC(N)=O)C(=O)NC(C)(C)C(=O)N[C@@H](CC(=O)O)C(=O)N[C@@H](Cc1ccccc1)C(=O)N[C@H](C(=O)N[C@@H](CCC(=O)O)C(=O)N[C@@H](Cc1ccncc1)C(=O)N[C@@H](CCCCNC(=O)COCCOCCNC(=O)COCCOCCNC(=O)CC[C@H](NC(=O)CCCCCCCCCCCCCCCCCCC(=O)O)C(=O)O)C(=O)N[C@@H](CC(C)C)C(=O)N[C@@H](CCC(=O)O)C(=O)N[C@@H](CCC(N)=O)C(=O)NCC(=O)N1CCC[C@H]1C(=O)N[C@@H](CO)C(=O)N[C@@H](CO)C(=O)NCC(=O)N[C@@H](C)C(=O)N1CCC[C@H]1C(=O)N1CCC[C@H]1C(=O)N1CCC[C@H]1C(=O)N[C@@H](CO)C(N)=O)C(C)C)[C@@H](C)CC) [Example 121] | 0.103 | 94.9 | –
Y[Aib]EGTFISDYSI[αMeL]LDKK([AEEA-AEEA-γGlu-C20 diacid])HQ[Aib]DFVE[4Pal]LLEAGPSSGAPPPS-NH2 (N-terminus assumed; SMILES CC[C@H](C)[C@H](NC(=O)[C@H](Cc1ccccc1)NC(=O)[C@@H](NC(=O)CNC(=O)[C@H](CCC(=O)O)NC(=O)C(C)(C)NC(=O)[C@@H](N)Cc1ccc(O)cc1)[C@@H](C)O)C(=O)N[C@@H](CO)C(=O)N[C@@H](CC(=O)O)C(=O)N[C@@H](Cc1ccc(O)cc1)C(=O)N[C@@H](CO)C(=O)N[C@H](C(=O)N[C@@](C)(CC(C)C)C(=O)N[C@@H](CC(C)C)C(=O)N[C@@H](CC(=O)O)C(=O)N[C@@H](CCCCN)C(=O)N[C@@H](CCCCNC(=O)COCCOCCNC(=O)COCCOCCNC(=O)CC[C@H](NC(=O)CCCCCCCCCCCCCCCCCCC(=O)O)C(=O)O)C(=O)N[C@@H](Cc1c[nH]cn1)C(=O)N[C@@H](CCC(N)=O)C(=O)NC(C)(C)C(=O)N[C@@H](CC(=O)O)C(=O)N[C@@H](Cc1ccccc1)C(=O)N[C@H](C(=O)N[C@@H](CCC(=O)O)C(=O)N[C@@H](Cc1ccncc1)C(=O)N[C@@H](CC(C)C)C(=O)N[C@@H](CC(C)C)C(=O)N[C@@H](CCC(=O)O)C(=O)N[C@@H](C)C(=O)NCC(=O)N1CCC[C@H]1C(=O)N[C@@H](CO)C(=O)N[C@@H](CO)C(=O)NCC(=O)N[C@@H](C)C(=O)N1CCC[C@H]1C(=O)N1CCC[C@H]1C(=O)N1CCC[C@H]1C(=O)N[C@@H](CO)C(N)=O)C(C)C)[C@@H](C)CC) [Example 3] | 0.0525 | 338 | 381
Y[Aib]EGTFISDYSI[αMeL]LDKK([AEEA-AEEA-γGlu-C20 diacid])HQ[Aib]DFVE[4Pal]LLEQGPSSGAPPPS-NH2 (N-terminus assumed; SMILES CC[C@H](C)[C@H](NC(=O)[C@H](Cc1ccccc1)NC(=O)[C@@H](NC(=O)CNC(=O)[C@H](CCC(=O)O)NC(=O)C(C)(C)NC(=O)[C@@H](N)Cc1ccc(O)cc1)[C@@H](C)O)C(=O)N[C@@H](CO)C(=O)N[C@@H](CC(=O)O)C(=O)N[C@@H](Cc1ccc(O)cc1)C(=O)N[C@@H](CO)C(=O)N[C@H](C(=O)N[C@@](C)(CC(C)C)C(=O)N[C@@H](CC(C)C)C(=O)N[C@@H](CC(=O)O)C(=O)N[C@@H](CCCCN)C(=O)N[C@@H](CCCCNC(=O)COCCOCCNC(=O)COCCOCCNC(=O)CC[C@H](NC(=O)CCCCCCCCCCCCCCCCCCC(=O)O)C(=O)O)C(=O)N[C@@H](Cc1c[nH]cn1)C(=O)N[C@@H](CCC(N)=O)C(=O)NC(C)(C)C(=O)N[C@@H](CC(=O)O)C(=O)N[C@@H](Cc1ccccc1)C(=O)N[C@H](C(=O)N[C@@H](CCC(=O)O)C(=O)N[C@@H](Cc1ccncc1)C(=O)N[C@@H](CC(C)C)C(=O)N[C@@H](CC(C)C)C(=O)N[C@@H](CCC(=O)O)C(=O)N[C@@H](CCC(N)=O)C(=O)NCC(=O)N1CCC[C@H]1C(=O)N[C@@H](CO)C(=O)N[C@@H](CO)C(=O)NCC(=O)N[C@@H](C)C(=O)N1CCC[C@H]1C(=O)N1CCC[C@H]1C(=O)N1CCC[C@H]1C(=O)N[C@@H](CO)C(N)=O)C(C)C)[C@@H](C)CC) [Example 46] | 0.0319 | 435 | 744
Y[Aib]EGTFISDYSI[αMeL]LD[Orn]IHQ[Aib]EFVE[4Pal]K([AEEA-AEEA-γGlu-C20 diacid])LEAGPSSGAPPPS-NH2 (N-terminus assumed; SMILES CC[C@H](C)[C@H](NC(=O)[C@H](CCCN)NC(=O)[C@H](CC(=O)O)NC(=O)[C@H](CC(C)C)NC(=O)[C@](C)(CC(C)C)NC(=O)[C@@H](NC(=O)[C@H](CO)NC(=O)[C@H](Cc1ccc(O)cc1)NC(=O)[C@H](CC(=O)O)NC(=O)[C@H](CO)NC(=O)[C@@H](NC(=O)[C@H](Cc1ccccc1)NC(=O)[C@@H](NC(=O)CNC(=O)[C@H](CCC(=O)O)NC(=O)C(C)(C)NC(=O)[C@@H](N)Cc1ccc(O)cc1)[C@@H](C)O)[C@@H](C)CC)[C@@H](C)CC)C(=O)N[C@@H](Cc1c[nH]cn1)C(=O)N[C@@H](CCC(N)=O)C(=O)NC(C)(C)C(=O)N[C@@H](CCC(=O)O)C(=O)N[C@@H](Cc1ccccc1)C(=O)N[C@H](C(=O)N[C@@H](CCC(=O)O)C(=O)N[C@@H](Cc1ccncc1)C(=O)N[C@@H](CCCCNC(=O)COCCOCCNC(=O)COCCOCCNC(=O)CC[C@H](NC(=O)CCCCCCCCCCCCCCCCCCC(=O)O)C(=O)O)C(=O)N[C@@H](CC(C)C)C(=O)N[C@@H](CCC(=O)O)C(=O)N[C@@H](C)C(=O)NCC(=O)N1CCC[C@H]1C(=O)N[C@@H](CO)C(=O)N[C@@H](CO)C(=O)NCC(=O)N[C@@H](C)C(=O)N1CCC[C@H]1C(=O)N1CCC[C@H]1C(=O)N1CCC[C@H]1C(=O)N[C@@H](CO)C(N)=O)C(C)C) [Example 122] | 0.0311 | 957 | –
YXEGTFISDYSILLDKKAQXDFVNWLLAQGPSSGAPPPS (D-Ala2; K17((2-[2-(2-Amino-ethoxy)-ethoxy]-acetyl)2-(γ-Glu)-CO-(CH2)18-CO2H); Aib20; C-terminal amide) [Example 1] | 0.0667 | 228 | 57.8
YXEGTFISDYSILLDKKAQXDFVNWLLAQGPSSGAPPPS (D-Ala2; K17((2-[2-(2-Amino-ethoxy)-ethoxy]-acetyl)2-(γ-Glu)-CO-(CH2)16-CO2H); Aib20; C-terminal amide) [Example 2] | 0.0373 | 379 | 77.9
YXEGTFISDYSILLDKKAQXEFVQWLLAGGPSSGAPPPS (D-Ala2; K17((2-[2-(2-Amino-ethoxy)-ethoxy]-acetyl)2-(γ-Glu)-CO-(CH2)16-CO2H); Aib20; C-terminal amide) [Example 27] | 0.0354 | 401 | 23.2
YXEGTFISDYSILLDKKAQXEFVNWLLEGGPSSGAPPPS (D-Ala2; K17((2-[2-(2-Amino-ethoxy)-ethoxy]-acetyl)2-(γ-Glu)-CO-(CH2)16-CO2H); Aib20; C-terminal amide) [Example 28] | 0.0732 | 86.8 | 6.46
YXEGTFISDYSILLDKKAQXDFVNWLLAGGPSSGAPPPS (D-Ala2; K17((2-[2-(2-Amino-ethoxy)-ethoxy]-acetyl)2-(γ-Glu)-CO-(CH2)16-CO2H); Aib20; C-terminal amide) [Example 19] | 0.0469 | 335 | 15.2
YXEGTFISDYSILLDKKAQXDFVNWLLEQGPSSGAPPPS (D-Ala2; K17((2-[2-(2-Amino-ethoxy)-ethoxy]-acetyl)2-(γ-Glu)-CO-(CH2)16-CO2H); Aib20; C-terminal amide) [Example 17] | 0.0571 | 274 | 106
YXEGTFISDYSILLDKKAQXEFVNWLLAQGPSSGAPPPS (D-Ala2; K17((2-[2-(2-Amino-ethoxy)-ethoxy]-acetyl)2-(γ-Glu)-CO-(CH2)16-CO2H); Aib20; C-terminal amide) [Example 20] | 0.0477 | 216 | 79.8
YXEGTFISDYSILLDKKAQXEFVEWLLAGGPSSGAPPPS (D-Ala2; K17((2-[2-(2-Amino-ethoxy)-ethoxy]-acetyl)2-(γ-Glu)-CO-(CH2)16-CO2H); Aib20; C-terminal amide) [Example 29] | 0.0569 | 133 | 22.7
YXEGTFISDYSILLDKKAQXDFVEWLLAQGPSSGAPPPS (D-Ala2; K17((2-[2-(2-Amino-ethoxy)-ethoxy]-acetyl)2-(γ-Glu)-CO-(CH2)16-CO2H); Aib20; C-terminal amide) [Example 16] | 0.0438 | 549 | 99.2

Reference: US20210032299A1 (Eli Lilly, published 2021)
